Substrate in data set [1]: Nc1ncnc2c1ncn2[C@@H]1O[C@H](COP(=O)(O)OP(=O)(O)OP(=O)(O)O)[C@@H](O)[C@H]1O
The data set is described as follows: purified protein. The conditions noted are these: 5 mM NAD+, 40 mM MgCl2, 100 mM Tris-HCl pH 8.0, 37 °C.

Substrate in data set [2]: NC(=O)c1ccc[n+]([C@@H]2O[C@H](COP(=O)(O)OP(=O)(O)OC[C@H]3O[C@@H](n4cnc5c(N)ncnc54)[C@H](O)[C@@H]3O)[C@@H](O)[C@H]2O)c1
As to the kind of experiment: purified protein. The conditions noted are these: ATP as donor, 20 mM MgCl2, 100 mM Tris-HCl pH 8.0, 37 °C.

The data set “SEC” concerns the molecule itself. The data set is described as follows: SEC. Background: Size exclusion chromatography separates by hydrodynamic size, large species first.

B1: purified C5orf33 protein (His-tagged Δ62C5orf33 protein) (enzyme, human, UniProt Q4G0N4-1 63-442, looked up)
chain: DGGFRPSRVVVVAKTTRYEFEQQRYRYAELSEEDLKQLLALKGSSYSGLLERHHIHTKNVEHIIDSLRNEGIEVRLVKRREYDEETVRWADAVIAAGGDGTMLLAASKVLDRLKPVIGVNTDPERSEGHLCLPVRYTHSFPEALQKFYRGEFRWLWRQRIRLYLEGTGINPVPVDLHEQQLSLNQHNRALNIERAHDERSEASGPQLLPVRALNEVFIGESLSSRASYYEISVDDGPWEKQKSSGLNLCTGTGSKAWSFNINRVATQAVEDVLNIAKRQGNLSLPLNRELVEKVTNEYNESLLYSPEEPKILFSIREPIANRVFSSSRQRCFSSKVCVRSRCWDACMVVDGGTSFEFNDGAIASMMINKEDELRTVLLEQ
In the case of B1, the Michaelis constant (Km) in the data set “purified protein [1]” was 1.7 ± 0.3 mM; in the data set “purified protein [2]”, 0.022 ± 0.001 mM. In the data set “SEC”, the “stoichiometry N” value was 2.

The term Km denotes the concentration of substrate that gives half-maximal velocity. A word on the stoichiometry N: it is the number of molecules, sites or subunits per partner or assembly.

The record behind these values is paper PMC3535332 (Nature Communications, 2012).
